Consider one molecule from US10709762B2, “Use of M-CSF for preventing or treating myeloid cytopenia and related complications” (priority 2013, dated 2020).

One test deals with HSC. Kind of test: Transplantation of M-CSF primed HSC into sub-lethally irradiated recipients, analysis of progeny. The format is in vivo, mice. On the procedure: (§1) CD45.1 and C57Bl/6 mice were obtained from Charles River. PU.1-GFP^31 M-CSFR^−/−27 and PU.1^fl/fl 32 mice have been described. Age- and sex-matched CD45.1 recipients that were reconstituted as described^3 with CD45.2 foetal liver from wt or M-CSFR^−/− embryos^27 and PU.1^fl/fl or PU.1^fl/fl::MxCre bone marrow, were used to isolate CD150+CD34− KSLF HSC not earlier than 8 weeks after reconstitution. For in vivo injections the 10 μg/mouse M-CSF, 5 mg/kg LPS (055:B5 E. coli) or sorted cells were injected in 100 μl of PBS into the retro-orbital sinus. For HSC transplantation 400 CD150+CD34− KSLF HSC were sorted from CD45.2 mice and mixed with 100.000 Lin^+ Sca^− CD45.1 carrier cells prior to injection into sub-lethally irradiated (4.5 Gy) CD45.1 recipient mice. For competitive transplantations, 1300 CD150+, CD34-KSLF HSC were isolated 16 h after control or 10 μg M-CSF injection from actin-GFP CD45.2 mice^33, mixed with equal numbers of CD45.2 competitor HSC and injected with 300.000 Lin^+ Sca^− RC-lysed CD45.1 carrier cells into sub-lethally irradiated (4.5 Gy) CD45.1 recipients. Contribution to platelets, CD19+ B-cells and CD11b+ myeloid cells was analysed after 4 and 6 weeks in the blood from mice with at least 5% GFP+ donor cells. For PU.1 deletion PU.1^fl/fl or PU.1^fl/fl::MxCre reconstituted mice were intra-peritoneally injected with 5 μg/g Polyinosinic:polycytidylic acid 7 and 9 days prior to control (PBS) or 10 μg M-CSF injection. All mouse experiments were performed under specific pathogen-free conditions in accordance with institutional guidelines.
(§2) For FACS sorting and analysis we used described staining protocols^3 and published stem and progenitor cell definitions^34, FACSCANTO™ BD™ LSRII and FACSARIA™ III equipment and DIVA™ software (BECTON-DICKINSON), analysing only populations with at least 200 events. For HSC analysis we used antibodies anti-CD34-FITC (clone RAM34, BD BIOSCIENCES), anti-CD135-PE (clone A2F10.1, BD BIOSCIENCES), anti-CD150-Pe-Cy7 (clone TC15-12F12.2, BIOLEGEND), anti-CD117-APC H7 (clone 2B8, BD BIOSCIENCES), anti-Sca-1-Pe-Cy5 (clone D7, BIOLEGEND), anti-CD48-APC (clone HM48-1, BIOLEGEND). Diverging from this or in addition we used antibodies anti-CD34 Alexa 700 (clone RAM34, BD BIOSCIENCES), anti-CD16/32 PE (clone 2.4G2, BD BIOSCIENCES), anti-CD11b PE-CF594 (clone M1/70, BD BIOSCIENCES), anti-CD19PE-Cy7 (clone 1D3, BD biosciences), anti CD45.2 APC (clone 104, BD BIOSCIENCES) and anti CD45.1 Pacific Blue (clone A20, BD BIOSCIENCES) for progenitor and blood cell analysis. LIVE/DEAD Fixable Violet Dead cell dye (Invitrogen) was used as viability marker.

Test [1] concerns PU.1 in HSC of PU.1-GFP reporter mice. As to the kind of experiment: PU.1-GFP reporter activation in HSC after in vivo injection (FACS). On the procedure:
as §1, §2

Test [2] relates to PU.1 promoter activation in single PU.1 negative HSC. As to the kind of experiment: Time-lapse video imaging of GFP-negative sorted HSC from PU.1-GFP mice. The format is cell-based. On the procedure:
Wherever possible our video microscopy protocols followed proposed guidelines^24. In detail, FACS sorted CD150+ CD34− KSLF HCS from wt C57/Bl6 or GFP-negative CD150+ CD34− KSLF HSC from PU.1-GFP reporter mouse^31 bone marrow were suspended in SCM supplemented with 100 U/ml penicillin and […] streptomycin, 20 ng/ml rSCF, 50 ng/ml rTPO+/−100 ng/ml rM-CSF and plated in Ibidi μ-slidesVI(0.4) (Biovalley SA, France). Time-lapse microscopy was performed using a Cell Observer system (Carl Zeiss Microscopy GmbH, Germany) at 37° C. and 5% CO2. Images were acquired every 10 minutes using 10× (A-plan 10×/0.45 Ph1) or 40× (Plan-Apochromat 40×/0.95 Korr M27) objectives in brightfield and fluorescence (GFP filters: EX BP 470/40; at 350 ms) with a COOLSNAP™ HQ2 monochrome camera (Photometrics) with a 2×2 binning and a metal halide 120W source for fluorescence illumination. For image analysis a matrix of 4×4 images was acquired for each time point. Images were stitched with AxioVision software (Carl Zeiss Microscopy GmbH, Germany) and processed with Fiji software^36 using a slight rolling ball subtraction of background and 1 pixel Gaussian blur. For background subtraction of brightfield images, the median of z-projection was subtracted from the time-lapse stack. Single cell tracking was performed with basic commands of ImageJ^37 and Fiji^36 software and with specific tracking plugin MTrackJ^38 in manual mode. Each cell was tracked manually frame-by-frame in the bright field channel and cross-controlled by two microscope specialists. Cells with non-standard morphology or size were rejected. The fluorescence signal was measured as the difference of maximum minus minimum intensity within a defined region of interest (ROI) around each cell. Cell properties and behaviour (cell division, cell death, position, fluorescence increase) were manually documented to build cumulated curves. R^39 and Excel (Microsoft Corporation) software was used to manage data and build graphics.

B1: M-CSF: recombinant murine macrophage colony stimulating factor from PeproTech, used in Example 1 (protein, UniProt P07141 33-552, looked up)
Macrophage colony-stimulating …: KEVSEHCSHMIGNGHLKVLQQLIDSQMETSCQIAFEFVDQEQLDDPVCYLKKAFFLVQDIIDETMRFKDNTPNANATERLQELSNNLNSCFTKDYEEQNKACVRTFHETPLQLLEKIKNFFNETKNLLEKDWNIFTKNCNNSFAKCSSRDVVTKPDCNCLYPKATPSSDPASASPHQPPAPSMAPLAGLAWDDSQRTEGSSLLPSELPLRIEDPGSAKQRPPRSTCQTLESTEQPNHGDRLTEDSQPHPSAGGPVPGVEDILESSLGTNWVLEEASGEASEGFLTQEAKFSPSTPVGGSIQAETDRPRALSASPFPKSTEDQKPVDITDRPLTEVNPMRPIGQTQNNTPEKTDGTSTLREDHQEPGSPHIATPNPQRVSNSATPVAQLLLPKSHSWGIVLPLGELEGKRSTRDRRSPAELEGGSASEGAARPVARFNSIPLTDTGHVEQHEGSSDPQIPESVFHLLVPGIILVLLTVGGLLFYKWKWRSHRDPQTLDSSVGRPEDSSLTQDEDRQVELPV
As for B1, the “myeloid differentiation preference of M-CSF primed HSC after deletion of PU.1” value in the test with HSC (HSC with deleted PU.1 alleles, spleen 2 weeks) is given as “abolished”. In addition, in the test on HSC (in vivo M-CSF primed CD45.2 HSC, after 2 weeks), the “ratio of GMP to MEP progenitors in the spleen” value is “increased ratio”. Further, in the test with HSC (in vivo M-CSF primed HSC, after 4 weeks), the “myeloid to lymphoid cell ratio in peripheral blood” value is “increased myeloid to lymphoid cell ratio”. Moreover, in the test with HSC (in vivo priming with M-CSF, spleen 2 weeks after transplantation), the “ratio of GMP to MEP developing from PU.1+ HSC versus PU.1- HSC” value is listed as “higher ratio”. Also, the “PU.1 activation in CD150hi HSC compared with total HSC” value in test [1] (16 h after injection) was “activated PU.1 to a similar extent”. Besides, in test [1] (HSC after M-CSF injection), the “change in M-CSFR or MafB expression” value is “no significant change”. In test [1] (PU.1-GFP reporter mice, direct intravenous injection, after 16 h), the “PU.1 activation in HSC” value was “significantly increased PU.1 activation”. For the same molecule, the “change in the proportion of CD150hi HSC” value in test [1] (in GFP-positive or -negative HSC) was “no change”. The “proliferation or survival advantage of cultured HSC (video-microscopy)” value in test [2] (culture in M-CSF) is listed as “no proliferation or survival advantage”. Moreover, in test [2] (end of the 24 h observation period (18 to 42 hours of culture)), the “PU.1+ cells developed versus control conditions” value is recorded as “over two-fold more PU.1+ cells”. Moreover, the “commitment events of PU.1 activation occurred earlier” value in test [2] (in the presence of M-CSF versus control) worked out at 8 h. Moreover, the “rate of PU.1 activation events” value in test [2] (over the whole observation period) was “higher rate”.
